The record followed here is the Human Domainome abundance scans (Beltran et al. 2025).

First the molecules themselves.
B1: Integrator complex subunit 12, residues 155 to 213; numbered along this chain, Q96CB8 (parent)
chain: AMEMGLACVVCRQMMVASGNQLVECQECHNLYHRDCHKPQVTDKEANDPRLVWYCARCT
B2: RNA-binding E3 ubiquitin-protein ligase MEX3C, residues 325 to 391; numbered along this chain, Q5U5Q3 (parent)
chain: GQTTVQVRVPYRVVGLVVGPKGATIKRIQQQTHTYIVTPSRDKEPVFEVTGMPENVDRAREEIEMHI

± gives the uncertainty stated by the source.

Variants of B1 are the subject of one series. Description: abundance fitness (aPCA) (normalised: wild type 0, dead -1); higher = more abundant; growth selection in yeast, the domain comes from the species named. The conditions noted are these: Homo sapiens.
With AMEMGLACVVCRQMMVASGNQLVECQECHNLYHRDCHKPQVTDKEANDPRLVWICARCT, the abundance fitness was -0.113 ± 0.082.

As for AMEMGLACVVCRQMMVASGNQLVECQECHNLYHRDCHKPQVPDKEANDPRLVWYCARCT, the abundance fitness came to 0.039 ± 0.041.

Take AMEMSLACVVCRQMMVASGNQLVECQECHNLYHRDCHKPQVTDKEANDPRLVWYCARCT: the abundance fitness was found to be 0.007 ± 0.03.

Turning to AMEMGLACVVCRQMMVASGWQLVECQECHNLYHRDCHKPQVTDKEANDPRLVWYCARCT, the abundance fitness was -0.281 ± 0.062.

For the variant AMEMGLACVVCRQMMVASGNQLVECQECHNLAHRDCHKPQVTDKEANDPRLVWYCARCT, the abundance fitness is -0.128 ± 0.039.

For the variant AMEMGLACVVCRQMMVASGNQLVECQECHNLYHRDCHKPQVTDKEANDPTLVWYCARCT, the abundance fitness came out at 0.041 ± 0.056.

Turning to AMEMGLACVVCRQMMVASGNQLVECQECHNLYHRDCHKPQVTDKEANDPRLPWYCARCT, the abundance fitness is 0.019 ± 0.052.

As for AMEMGLACVVCRQMMRASGNQLVECQECHNLYHRDCHKPQVTDKEANDPRLVWYCARCT, the abundance fitness amounted to 0.019 ± 0.035.

In the case of AMEMGLACVVCRQMMVASGNQLVECQGCHNLYHRDCHKPQVTDKEANDPRLVWYCARCT, the abundance fitness was -0.043 ± 0.031.

In the case of AMEMGLACVVCRQMMVASPNQLVECQECHNLYHRDCHKPQVTDKEANDPRLVWYCARCT, the abundance fitness is -0.069 ± 0.095.

As to AMEMGLACVVCRQMMVASHNQLVECQECHNLYHRDCHKPQVTDKEANDPRLVWYCARCT, the abundance fitness was -0.072 ± 0.047.

In the case of AMEMGLACVVCRQMMVASGNQLVECQECHNLYHRDCHKIQVTDKEANDPRLVWYCARCT, the abundance fitness was -0.184 ± 0.1.

Regarding AMEMGLACVVCRQMMVASGNQLVECQECHNKYHRDCHKPQVTDKEANDPRLVWYCARCT, the abundance fitness was determined as 0.103 ± 0.055.

Regarding AMEMGLACVVCRQMMVAVGNQLVECQECHNLYHRDCHKPQVTDKEANDPRLVWYCARCT, the abundance fitness was -0.102 ± 0.032.

With AMEMGLACVVCRQMMVASGNQLVECQECHNLYHRDCHKPQVTDKEANDPRLVWYCAICT, the abundance fitness is -0.103 ± 0.086.

As to AMEMGLACVVCRQYMVASGNQLVECQECHNLYHRDCHKPQVTDKEANDPRLVWYCARCT, the abundance fitness stood at 0.019 ± 0.036.

On to AMEMGLACVVCRQMMVASGNQLVECQECHNLYQRDCHKPQVTDKEANDPRLVWYCARCT, for which the abundance fitness was -0.769 ± 0.084.

AMEMGLACVVCREMMVASGNQLVECQECHNLYHRDCHKPQVTDKEANDPRLVWYCARCT: the abundance fitness was -0.074 ± 0.087.

Consider AMEMGLACVVCRQMMVASGNQLVECQECHNLYHRDCHKPQVTDKEANDPREVWYCARCT, for which the abundance fitness came to 0.056 ± 0.06.

AMEMGLACVVCRQMMVASGNQLVECQECHNLYHRDCHKPQVTDKEANDPRPVWYCARCT: the abundance fitness was 0.035 ± 0.06.

For AMEMGLACVVCRQMMVASGNQLVECQECHNLYHRDCHKPQVTDKEINDPRLVWYCARCT, the abundance fitness is -0.077 ± 0.075.

Consider AMEMGLACVVCKQMMVASGNQLVECQECHNLYHRDCHKPQVTDKEANDPRLVWYCARCT, for which the abundance fitness stood at 0.052 ± 0.053.

AMEMGLACVVCRQMMVASGNQLVECQECHNLYHRDCHKPQVTDKYANDPRLVWYCARCT: the abundance fitness amounted to 0.005 ± 0.094.

AMEMGLACVVCRQMMVASGNQLVECQERHNLYHRDCHKPQVTDKEANDPRLVWYCARCT: the abundance fitness was -0.816 ± 0.042.

Consider AMEMGLACVVCRQMMVASGNQLVECQECHNLYHRDCHKPQVTDKEANDPRLVWYWARCT, for which the abundance fitness was -1.11 ± 0.1.

As to AMEMGLAGVVCRQMMVASGNQLVECQECHNLYHRDCHKPQVTDKEANDPRLVWYCARCT, the abundance fitness is -1.11 ± 0.09.

As to AMEFGLACVVCRQMMVASGNQLVECQECHNLYHRDCHKPQVTDKEANDPRLVWYCARCT, the abundance fitness is -0.096 ± 0.038.

Variants of B2 are the subject of the next series. Described as above. The conditions noted are these: Homo sapiens.
Consider GQTTVQVRVPYRVVGLVVGPKGATIKRIQQQTHTYIVTPSRDKEPVFEVTGMPENVDRAREEIEMHM, for which the abundance fitness was -0.635 ± 0.4.

As for GQTTVQVRVPYRVVGLVVGPKGATIKRIQQQTHTYIVTPSRDKEPVFEVTGMPENVDRAREEIEMHG, the abundance fitness turned out to be 0.026 ± 0.18.

Take GQTTVQVRVPYRVVGLVVGPKGATIKRIQQQTHTYIVTPSRDKEPVFEVTGMPENVDRAREEIEMHW: the abundance fitness was determined as 0.289 ± 0.19.

Take GQTTVQVRVPYRVVGLVVGPKGATIKRIQQQTHTYIVTPSRDKEPVFEVTGMPENVDRAREEIEMHV: the abundance fitness is 0.119 ± 0.094.

Consider GQTTVQVRVPYRVVGLVVGPKGATIKRIQQQTHTYIVTPSRDKEPVFEVTGMPENVDRAREEIEMHR, for which the abundance fitness was -0.515 ± 0.16.

Take GQTTVQVRVPYRVVGLVVGPKGATIKRIQQQTHTYIVTPSRDKEPVFEVTGMPENVDRAREEIEMHC: the abundance fitness was -0.104 ± 0.24.

With GQTTVQVRVPYRVVGLVVGPKGATIKRIQQQTHTYIVTPSRDKEPVFEVTGMPENVDRAREEIEMHY, the abundance fitness is 0.476 ± 0.41.

With GQTTVQVRVPYRVVGLVVGPKGATIKRIQQQTHTYIVTPSRDKEPVFEVTGMPENVDRAREEIEMHP, the abundance fitness is -0.773 ± 0.28.

Consider GQTTVQVRVPYRVVGLVVGPKGATIKRIQQQTHTYIVTPSRDKEPVFEVTGMPENVDRAREEIEMHK, for which the abundance fitness was -0.778 ± 0.36.

As to GQTTVQVRVPYRVVGLVVGPKGATIKRIQQQTHTYIVTPSRDKEPVFEVTGMPENVDRAREEIEMHF, the abundance fitness is -0.437 ± 0.38.

On to GQTTVQVRVPYRVVGLVVGPKGATIKRIQQQTHTYIVTPSRDKEPVFEVTGMPENVDRAREEIEMHE, for which the abundance fitness was -0.235 ± 0.22.

GQTTVQVRVPYRVVGLVVGPKGATIKRIQQQTHTYIVTPSRDKEPVFEVTGMPENVDRAREEIEMHS: the abundance fitness was -0.027 ± 0.1.

For GQTTVQVRVPYRVVGLVVGPKGATIKRIQQQTHTYIVTPSRDKEPVFEVTGMPENVDRAREEIEMHA, the abundance fitness turned out to be 0.163 ± 0.11.

Take GQTTVQVRVPYRVVGLVVGPKGATIKRIQQQTHTYIVTPSRDKEPVFEVTGMPENVDRAREEIEMHT: the abundance fitness is -0.023 ± 0.1.
